# According to patent publication US20120316071A1 (published 2012):
# T1: rHuman Erythropoietin R/Fc Chimera (human, UniProt P19235 25-250)
# T1 construct: also called EPO R; EPO R/Fc; not shown: Fc of the bought R&D Systems chimera
# T1 sequence (looked up): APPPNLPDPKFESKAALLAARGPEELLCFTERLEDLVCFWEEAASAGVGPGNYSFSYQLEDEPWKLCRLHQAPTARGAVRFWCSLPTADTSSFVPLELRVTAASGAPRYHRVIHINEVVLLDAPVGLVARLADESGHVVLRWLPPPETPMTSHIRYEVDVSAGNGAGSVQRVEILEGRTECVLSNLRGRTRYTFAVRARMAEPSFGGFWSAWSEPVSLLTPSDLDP
# T2: rHuman Erythropoietin R/Fc Chimera, CF (R&D Systems Cat#963-ER) (human, UniProt P19235 25-250)
# T2 construct: Bought recombinant protein; also called EPO R; EPO R/Fc; Fc part of the bought chimera not given
# T2 sequence (looked up): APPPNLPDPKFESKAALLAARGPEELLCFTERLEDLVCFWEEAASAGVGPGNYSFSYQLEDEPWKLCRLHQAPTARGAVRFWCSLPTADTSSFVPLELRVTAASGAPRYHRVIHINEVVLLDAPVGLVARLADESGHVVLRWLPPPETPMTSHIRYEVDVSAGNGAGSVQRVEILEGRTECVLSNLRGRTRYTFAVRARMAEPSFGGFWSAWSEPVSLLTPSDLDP
# Legend:
# [1] = target: T3, Recombinant Human DLL4 (delta-like protein 4) (human, UniProt Q9NR61 27-524); assay: ELISA, DLL4 coated on plate
# T3 construct: Bought recombinant protein (R&D Systems Cat#1506-D4/CF); also called rHuman DLL4
# [2] = target: T4, rHuman Notch-1/Fc Chimera (human, UniProt P46531 19-526); assay: ECL (MSD) multispot assay, antigen spotted; blank spot of this row 424
# T4 construct: R&D Systems Cat#3647-TK; not shown: Fc of the bought R&D Systems chimera
# [3] = target: T5, rHuman CD44/Fc Chimera (human, UniProt P16070 21-220); assay: as above
# T5 construct: not shown: Fc of the bought R&D Systems chimera
# [4] = target: T6, rHuman P-Cadherin/Fc Chimera (human, UniProt P22223 108-654); assay: as above
# T6 construct: R&D Systems Cat#861-PC; not shown: Fc of the bought R&D Systems chimera
# [5] = target: T1, rHuman Erythropoietin R/Fc Chimera; assay: as above
# [6] = target: T3, Recombinant Human DLL4 (delta-like …); assay: as above
# [7] = target: T7, rHuman ErbB2/Fc Chimera (human, UniProt P04626 23-652); assay: as above
# T7 construct: not shown: Fc of the bought R&D Systems chimera
# [8] = target: T8, rHuman EGF R/Fc Chimera (human, UniProt P00533 25-645); assay: as above
# T8 construct: not shown: Fc of the bought R&D Systems chimera
# [9] = target: T3, Recombinant Human DLL4 (delta-like …); assay: ECL (MSD) multispot binding assay; value equals DLL4 signal over blank of Table 91
# [10] = target: T9, Recombinant Human DLL4 (delta-like protein 4) (human, UniProt Q9NR61 27-524); assay: SPR, Fab on recombinant human DLL4; (±8.5) at r15c5
# T9 construct: Bought recombinant protein; also called rHuman DLL4; Delta-like 4
# [11] = target: T9, Recombinant Human DLL4 (delta-like …); assay: SPR, Fab on recombinant human DLL4; column head x10^5 applied; (±6.24) at r15c3
# [12] = target: T9, Recombinant Human DLL4 (delta-like …); assay: SPR, Fab on recombinant human DLL4; column head x10^-3 applied as printed, but KD x ka implies 0.0717 s^-1 unscaled; (±0.00351) at r15c4
# [13] = target: T9, Recombinant Human DLL4 (delta-like …); assay: SPR, Fab on recombinant human DLL4; (±6) at r13c5
# [14] = target: T9, Recombinant Human DLL4 (delta-like …); assay: SPR, Fab on recombinant human DLL4; column head x10^5 applied; (±0.6) at r13c3
# [15] = target: T9, Recombinant Human DLL4 (delta-like …); assay: SPR, Fab on recombinant human DLL4; column head x10^-3 applied as printed, but KD x ka implies 0.0845 s^-1 unscaled; (±0.0050) at r13c4
# [16] = target: T10, Recombinant Human DLL4 (delta-like protein 4) (human, UniProt Q9NR61 27-524); assay: ELISA, Fab on plate-coated recombinant human DLL4
# T10 construct: also called rHuman DLL4; Delta-like 4
# [17] = target: T10, Recombinant Human DLL4 (delta-like …); assay: ECL (MSD) binding assay, Fab on immobilised recombinant human DLL4
# [18] = target: T9, Recombinant Human DLL4 (delta-like …); assay: SPR, Fab on recombinant human DLL4; (±200) printed at r9c5; ka and kd printed n/a
# [19] = target: T11, rHuman ErbB2/Fc Chimera, CF (R&D Systems Cat#1129-ER) (human, UniProt P04626 23-652); assay: ECL multispot (MSD) binding assay, antigen spotted on plate, Fab 0.04 uM;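 further: purified Fab incubated 1 h at 20 °C on antigen spots, detected via TAG-labelled antibody, ECL read against each well's blank, with signal-to-blank of at least 4 scored as binder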
# T11 construct: Bought recombinant protein; also called human epidermal growth factor 2 receptor; Fc part of the bought chimera not given
# [20] = target: T12, rHuman EGF R/Fc Chimera, CF (R&D Systems Cat#344-ER) (human, UniProt P00533 25-645); assay: as above
# T12 construct: Bought recombinant protein; also called epidermal growth factor receptor; Fc part of the bought chimera not given
# [21] = target: T13, rHuman HGF R/c-MET/Fc Chimera, CF (R&D Systems Cat#358-MT/CF) (human, UniProt P08581 25-932); assay: as above
# T13 construct: Bought recombinant protein; also called HGF R/Fc; hepatocyte growth factor receptor; Fc part of the bought chimera not given
# T13 sequence (P08581 25-932, change not shown): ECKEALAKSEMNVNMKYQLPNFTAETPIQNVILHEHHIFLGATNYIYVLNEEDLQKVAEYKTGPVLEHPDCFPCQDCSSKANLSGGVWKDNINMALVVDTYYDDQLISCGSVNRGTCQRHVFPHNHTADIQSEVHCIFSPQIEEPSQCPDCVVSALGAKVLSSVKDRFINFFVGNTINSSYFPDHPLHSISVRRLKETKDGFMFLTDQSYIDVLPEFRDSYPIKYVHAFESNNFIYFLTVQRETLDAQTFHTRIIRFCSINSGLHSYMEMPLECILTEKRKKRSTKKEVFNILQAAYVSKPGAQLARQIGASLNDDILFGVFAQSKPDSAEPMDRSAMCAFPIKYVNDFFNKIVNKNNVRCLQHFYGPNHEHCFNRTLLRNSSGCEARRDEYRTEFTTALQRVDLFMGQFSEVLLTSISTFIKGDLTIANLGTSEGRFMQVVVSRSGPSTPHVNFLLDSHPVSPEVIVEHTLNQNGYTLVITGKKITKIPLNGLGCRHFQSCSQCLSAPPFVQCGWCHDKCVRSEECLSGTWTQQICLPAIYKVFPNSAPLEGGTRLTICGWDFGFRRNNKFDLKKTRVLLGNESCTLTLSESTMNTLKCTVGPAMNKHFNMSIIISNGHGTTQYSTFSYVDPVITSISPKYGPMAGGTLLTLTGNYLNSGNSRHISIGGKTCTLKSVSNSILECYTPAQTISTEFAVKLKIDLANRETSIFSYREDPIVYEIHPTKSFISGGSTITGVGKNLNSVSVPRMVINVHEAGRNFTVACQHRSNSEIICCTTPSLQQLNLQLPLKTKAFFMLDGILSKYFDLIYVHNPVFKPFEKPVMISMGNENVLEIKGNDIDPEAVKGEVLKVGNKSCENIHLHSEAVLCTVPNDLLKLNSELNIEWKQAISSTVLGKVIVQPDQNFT
# [22] = target: T14, rHuman Notch-1/Fc Chimera, CF (R&D Systems Cat#3647-TK) (human, UniProt P46531 19-526); assay: as above
# T14 construct: Bought recombinant protein; Fc part of the bought chimera not given
# [23] = target: T15, rHuman CD44/Fc Chimera, CF (R&D Systems Cat#3660-CD) (human, UniProt P16070 21-220); assay: as above
# T15 construct: Bought recombinant protein; Fc part of the bought chimera not given
# [24] = target: T16, rHuman IGF-1 sR, CF (R&D Systems Cat#391-GR) (human, UniProt P08069 31-932); assay: as above
# T16 construct: Bought recombinant soluble receptor; also called insulin-like growth factor-1 soluble receptor
# [25] = target: T17, rHuman P-Cadherin/Fc Chimera, CF (R&D Systems Cat#861-PC) (human, UniProt P22223 108-654); assay: as above
# T17 construct: Bought recombinant protein; Fc part of the bought chimera not given
# [26] = target: T2, rHuman Erythropoietin R/Fc Chimera, CF …; assay: as above
# [27] = target: T18, Recombinant Human DLL4 (R&D Systems Cat#1506-D4/CF) (human, UniProt Q9NR61 27-524); assay: as above
# T18 construct: Bought recombinant protein; also called delta-like protein 4; rHuman DLL4
# [28] = target: T9, Recombinant Human DLL4 (delta-like …); assay: SPR, Fab on recombinant human DLL4; (±7) at r11c5
# [29] = target: T9, Recombinant Human DLL4 (delta-like …); assay: SPR, Fab on recombinant human DLL4; column head x10^5 applied; (±0.092) at r11c3
# [30] = target: T9, Recombinant Human DLL4 (delta-like …); assay: SPR, Fab on recombinant human DLL4; column head x10^-3 applied as printed, but KD x ka implies 0.023 s^-1 unscaled; (±0.004) at r11c4
binder,measurement,setting,value
"Fab VH5-51_IGHD5-18*01>3_IGHJ4*01 G100K/G104T & V3-4_IGLJ1*01 (Fab, V domains shown, Fab made in E. coli (heavy chain vector with CH1, His6 and Flag tags; lambda CL vector); also called KT; H:KT) VH: EVQLVQSGAEVKKPGESLKISCKGSGYSFTSYWIGWVRQMPGKGLEWMGIIYPGDSDTRYSPSFQGQVTISADKSISTAYLQWSSLKASDTAMYYCARRKYSYTYDYFDYWGQGTLVTVSS VL: QTVVTQEPSFSVSPGGTVTLTCGLSSGSVSTSYYPSWYQQTPGQAPRTLIYSTNTRSSGVPDRFSGSILGNKAALTITGAQADDESDYYCVLYMGSGISYVFGTGTKVTVL",ELISA (Signal-Noise),[1],0
same,ECL signal,[2],543
same,ECL signal,[3],579
same,ECL signal,[4],319
same,ECL signal,[5],554
same,ECL signal,[6],36400
same,ECL signal,[7],1100
same,ECL signal,[8],852
same,ECL signal-to-blank ratio,[9],85.9
"Fab VH5-51_IGHD5-18*01>3_IGHJ4*01 G100K/G104T G24T/S28R/G35V & V3-4_IGLJ1*01 (Fab, V domains shown, Fab made in E. coli; VH was cloned in Plasmid A (CH1, His6 and Flag tags) and VL in Plasmid E (lambda CL); also called KT TRV; H:KT TRV & L:wt) VH: EVQLVQSGAEVKKPGESLKISCKTSGYRFTSYWIVWVRQMPGKGLEWMGIIYPGDSDTRYSPSFQGQVTISADKSISTAYLQWSSLKASDTAMYYCARRKYSYTYDYFDYWGQGTLVTVSS VL: QTVVTQEPSFSVSPGGTVTLTCGLSSGSVSTSYYPSWYQQTPGQAPRTLIYSTNTRSSGVPDRFSGSILGNKAALTITGAQADDESDYYCVLYMGSGISYVFGTGTKVTVL",Kd,[10],36.2 nM
same,kon,[11],2.09e+06 M⁻¹ s⁻¹
same,koff,[12],7.17e-05 s⁻¹
"Fab VH5-51_IGHD5-18*01>3_IGHJ4*01 G100K/G104T S28R & V3-4_IGLJ1*01 (Fab, V domains shown, Fab made in E. coli; VH was cloned in Plasmid A (CH1, His6 and Flag tags) and VL in Plasmid E (lambda CL); also called KT S28R; H:KT S28R & L:wt) VH: EVQLVQSGAEVKKPGESLKISCKGSGYRFTSYWIGWVRQMPGKGLEWMGIIYPGDSDTRYSPSFQGQVTISADKSISTAYLQWSSLKASDTAMYYCARRKYSYTYDYFDYWGQGTLVTVSS VL: QTVVTQEPSFSVSPGGTVTLTCGLSSGSVSTSYYPSWYQQTPGQAPRTLIYSTNTRSSGVPDRFSGSILGNKAALTITGAQADDESDYYCVLYMGSGISYVFGTGTKVTVL",Kd,[13],114 nM
same,kon,[14],740000 M⁻¹ s⁻¹
same,koff,[15],8.45e-05 s⁻¹
"Fab VH5-51_IGHD5-18*01>3_IGHJ4*01 G100K/G104T (H:KT) & V3-4_IGLJ1*01 G23R (Fab, V domains shown, Fab (CH1 with His6/Flag tags from Plasmid A, lambda CL from Plasmid E); also called G100K/G104T & G23R) VH: EVQLVQSGAEVKKPGESLKISCKGSGYSFTSYWIGWVRQMPGKGLEWMGIIYPGDSDTRYSPSFQGQVTISADKSISTAYLQWSSLKASDTAMYYCARRKYSYTYDYFDYWGQGTLVTVSS VL: QTVVTQEPSFSVSPGGTVTLTCRLSSGSVSTSYYPSWYQQTPGQAPRTLIYSTNTRSSGVPDRFSGSILGNKAALTITGAQADDESDYYCVLYMGSGISYVFGTGTKVTVL",ELISA signal,[16],0.11
same,ECL signal,[17],68200
"Fab VH5-51_IGHD5-18*01>3_IGHJ4*01 & V3-4_IGLJ1*01 (Fab, V domains shown, Germline Fab made in E. coli; also called parental; wildtype) VH: EVQLVQSGAEVKKPGESLKISCKGSGYSFTSYWIGWVRQMPGKGLEWMGIIYPGDSDTRYSPSFQGQVTISADKSISTAYLQWSSLKASDTAMYYCARRGYSYGYDYFDYWGQGTLVTVSS VL: QTVVTQEPSFSVSPGGTVTLTCGLSSGSVSTSYYPSWYQQTPGQAPRTLIYSTNTRSSGVPDRFSGSILGNKAALTITGAQADDESDYYCVLYMGSGISYVFGTGTKVTVL",Kd,[18],4800 nM
"Fab VH5-51_IGHD5-18*01>3_IGHJ4*01 G100K/G104T (H:KT) & V3-4_IGLJ1*01 I98A (Fab, V domains shown, Fab; Expressed from Plasmid A (CH1, His6 and Flag tags) and Plasmid E (lambda CL); also called KT & I98A) VH: EVQLVQSGAEVKKPGESLKISCKGSGYSFTSYWIGWVRQMPGKGLEWMGIIYPGDSDTRYSPSFQGQVTISADKSISTAYLQWSSLKASDTAMYYCARRKYSYTYDYFDYWGQGTLVTVSS VL: QTVVTQEPSFSVSPGGTVTLTCGLSSGSVSTSYYPSWYQQTPGQAPRTLIYSTNTRSSGVPDRFSGSILGNKAALTITGAQADDESDYYCVLYMGSGASYVFGTGTKVTVL",ECL signal,[19],1380
same,ECL signal,[20],1050
same,ECL signal,[21],1230
same,ECL signal,[22],700
same,ECL signal,[23],708
same,ECL signal,[24],1100
same,ECL signal,[25],359
same,ECL signal,[26],584
same,ECL signal,[27],15100
"Fab VH5-51_IGHD5-18*01>3_IGHJ4*01 G100K/G104T & V3-4_IGLJ1*01 (Fab, V domains shown, Fab made in E. coli; VH was cloned in Plasmid A (CH1, His6 and Flag tags) and VL in Plasmid E (lambda CL); also called KT; H:KT & L:wt) VH: EVQLVQSGAEVKKPGESLKISCKGSGYSFTSYWIGWVRQMPGKGLEWMGIIYPGDSDTRYSPSFQGQVTISADKSISTAYLQWSSLKASDTAMYYCARRKYSYTYDYFDYWGQGTLVTVSS VL: QTVVTQEPSFSVSPGGTVTLTCGLSSGSVSTSYYPSWYQQTPGQAPRTLIYSTNTRSSGVPDRFSGSILGNKAALTITGAQADDESDYYCVLYMGSGISYVFGTGTKVTVL",Kd,[28],355 nM
same,kon,[29],64500 M⁻¹ s⁻¹
same,koff,[30],2.3e-05 s⁻¹
